Substrate in series [1]: Nc1ncnc2c1ncn2[C@@H]1O[C@H](COP(=O)(O)OP(=O)(O)OP(=O)(O)O)[C@@H](O)[C@H]1O
In words: purified protein, by the assay type. Conditions: pH 7.5, 25.0 °C.

Substrate in series [2]: CC(C)C[C@H](NC(=O)[C@H](CO)NC(=O)CNC(=O)[C@H](CCCCN)NC(=O)[C@H](CCCNC(=N)N)NC(=O)[C@H](C)NC(=O)[C@@H](N)Cc1ccccc1)C(=O)N[C@@H](CCCNC(=N)N)C(=O)N[C@@H](CCC(N)=O)C(=O)O
In words: coupled PK/LDH assay: steady-state kinetics, product and dead-end inhibition of PKC-θ KD. In kind it is biochemical, human. Conditions: other: varied peptide substrate, saturating ATP, pH 7.5.

B1: PKC-θ KD (Homo sapiens) (protein)
chain: MGPELNKERPSLQIKLKIEDFILHKMLGKGSFGKVFLAEFKKTNQFFAIKALKKDVVLMDDDVECTMVEKRVLSLAWEHPFLTHMFCTFQTKENLFFVMEYLNGGDLMYHIQSCHKFDLSRATFYAAEIILGLQFLHSKGIVYRDLKLDNILLDKDGHIKIADFGMCKENMLGDAKTNTFCGTPDYIAPEILLGQKYNHSVDWWSFGVLLYEMLIGQSPFHGQDEEELFHSIRMDNPFYPRWLEKEAKDLLVKLFVREPEKRLGVRGDIRQHPLFREINWEELERKEIDPPFRPKVKSPFDCSNFDKEFLNEKPRLSFADRALINSMDQNMFRNFSFMNPGMERLISHHHHHH
notes: PKC-θ KD (amino acid residues 362 to 706) was cloned into a pET16b expression vector; hexa-histidine (C); Met-Gly (non-native N-terminal residues) (N); made in house; host or cells: E. coli BL21-DE3 (pET16b)
Broadly, the Km is the concentration of substrate that gives half-maximal velocity. What is called kcat/Km is the second-order rate constant that governs catalysis at low substrate concentration. For the protein B1, the Km in series [1] (other: 0 mM NaCl) was determined as 25 µM; in series [1] (other: initial velocity with peptide 1, 625 mM NaCl), 321 ± 19 µM; in series [1] (other: initial velocity, varied ATP vs peptide 3, 100 mM NaCl) it was 118 ± 17 µM. Besides, the specificity constant (kcat/Km) in series [2] was determined as 2.7e+06 M⁻¹ s⁻¹.

Values taken from patent US20050164323A1, “Methods of treating asthma” (Wyeth, priority 2003, published 2005).
